Article PMC3310817, “Liver X Receptors Regulate the Transcriptional Activity of the Glucocorticoid Receptor: Implications for the Carbohydrate Metabolism”

Columns and labels:
[1] = molecular target: T1, LXRα (recombinant, Active Motif);RXRα (recombinant, Active Motif) (Homo sapiens;Homo sapiens, UniProt Q13133;P19793 1-447;1-462, |); assay: EMSA; GW3965 (enhances binding); EMSA: 10 mM HEPES pH 8.0, 0.1 mM EDTA, 2 mM DTT, 50 mM NaCl, 5 mM MgCl2, 50 mM KCl, 4 mM spermidine, 4% Ficoll, 1 ug poly(dI-dC); preincubation 10 min 4 C, then 15 min room temperature with probe; conditions: protein: commercial;commercial; tags: ;; copies: 1;1; label: 32P; blunt
[2] = molecular target: T1, LXRα (recombinant, Active Motif);RXRα …; assay: EMSA; complex C; EMSA: 10 mM HEPES pH 8.0, 0.1 mM EDTA, 2 mM DTT, 50 mM NaCl, 5 mM MgCl2, 50 mM KCl, 4 mM spermidine, 4% Ficoll, 1 ug poly(dI-dC); preincubation 10 min 4 C, then 15 min room temperature with probe; conditions: protein: commercial;commercial; tags: ;; copies: 1;1; label: 32P; blunt

T1 sequence (Q13133 whole entry, chain 1 of 2): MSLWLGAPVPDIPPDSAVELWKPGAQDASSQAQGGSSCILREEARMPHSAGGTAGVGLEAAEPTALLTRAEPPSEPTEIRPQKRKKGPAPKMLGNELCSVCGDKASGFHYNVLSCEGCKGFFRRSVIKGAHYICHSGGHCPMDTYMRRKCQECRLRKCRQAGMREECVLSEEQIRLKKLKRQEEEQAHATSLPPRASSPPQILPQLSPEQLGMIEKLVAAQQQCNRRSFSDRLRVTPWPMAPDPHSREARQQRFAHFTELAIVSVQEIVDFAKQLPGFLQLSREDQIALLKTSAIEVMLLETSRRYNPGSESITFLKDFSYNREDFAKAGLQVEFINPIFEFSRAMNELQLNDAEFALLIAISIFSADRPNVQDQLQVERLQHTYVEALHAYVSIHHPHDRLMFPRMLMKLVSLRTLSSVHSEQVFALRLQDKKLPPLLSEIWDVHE
T1 sequence (P19793 whole entry, chain 2 of 2): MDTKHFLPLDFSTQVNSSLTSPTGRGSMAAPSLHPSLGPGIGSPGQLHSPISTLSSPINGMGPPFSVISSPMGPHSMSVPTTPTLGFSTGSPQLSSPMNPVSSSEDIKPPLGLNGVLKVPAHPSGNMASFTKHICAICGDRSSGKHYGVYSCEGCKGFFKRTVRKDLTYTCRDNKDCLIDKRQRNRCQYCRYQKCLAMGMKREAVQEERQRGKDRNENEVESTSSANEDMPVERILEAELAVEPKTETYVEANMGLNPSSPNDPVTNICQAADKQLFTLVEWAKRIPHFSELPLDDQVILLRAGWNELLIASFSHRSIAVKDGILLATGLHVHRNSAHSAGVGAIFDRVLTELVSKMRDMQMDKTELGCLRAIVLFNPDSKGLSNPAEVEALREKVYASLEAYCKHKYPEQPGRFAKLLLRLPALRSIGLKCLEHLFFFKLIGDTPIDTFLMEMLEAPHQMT

B1: Classic GRE wt (dsDNA)
DNA 1: AGCTGGTACAAACTGTTCTAGCT
DNA 2: AGCTAGAACAGTTTGTACCAGCT
[1]
  binding result: binds

B2: G6Pase GRE wt (dsDNA)
DNA 1: GCACTGTCAAGCAGTGTGCCCAAGTTAATAATT
DNA 2: AATTATTAACTTGGGCACACTGCTTGACAGTGC
[2]
  binding result: binds
